Columns and labels:
[1] = target: AGL55, 55-mer A-domain peptide of PAM_(NS88.2) (Streptococcus pyogenes (GAS isolate NS88.2)); assay: ITC; K2hPg (syringe) titrated into AGL55 (30 µM, cell); 50 mM sodium phosphate/100 mM NaCl, pH 7.4; 25°C; hetero-association model A + B (Sedphat)
[2] = target: PAM_(NS88.2), plasminogen-binding Group A streptococcal M-protein from GAS isolate NS88.2 (Streptococcus pyogenes (GAS isolate NS88.2)); assay: ITC; K2hPg (syringe) titrated into PAM_(NS88.2) (6 µM as monomer, cell); 50 mM sodium phosphate/100 mM NaCl, pH 7.4; 25°C; only the final inflection fitted, hetero-association model A + B (Sedphat)
[3] = target: PAM_(NS88.2), plasminogen-binding Group A streptococcal M-protein from GAS isolate NS88.2 (Streptococcus pyogenes (GAS isolate NS88.2)); assay: AUC; sedimentation equilibrium of the K2hPg/PAM_(NS88.2) complex isolated by gel filtration, at the temperature of its isolation (4°C, 25°C, 37°C); 50 mM sodium phosphate/100 mM NaCl, pH 7.4
[4] = target: PAM_(NS88.2), plasminogen-binding Group A streptococcal M-protein from GAS isolate NS88.2 (Streptococcus pyogenes (GAS isolate NS88.2)); assay: ITC; K2hPg (syringe) titrated into PAM_(NS88.2) (6 µM as monomer, cell); 50 mM sodium phosphate/100 mM NaCl, pH 7.4; 4°C; hetero-association model of K2hPg and PAM monomer (Sedphat)
[5] = target: PAM_(NS88.2), plasminogen-binding Group A streptococcal M-protein from GAS isolate NS88.2 (Streptococcus pyogenes (GAS isolate NS88.2)); assay: ITC; K2hPg (syringe) titrated into PAM_(NS88.2) (6 µM as monomer, cell); 50 mM sodium phosphate/100 mM NaCl, pH 7.4; 37°C; hetero-association model (Sedphat)
[6] = target: AGL55, 55-mer A-domain peptide of PAM_(NS88.2) (Streptococcus pyogenes (GAS isolate NS88.2)); assay: SEC-MALS; K2hPg/AGL55 mixture on a Wyatt 030S5 column, UV, RI and MALS detection, protein conjugate analysis; 50 mM Na-phosphate/100 mM NaCl, pH 7.4; 25°C
[7] = target: AGL55, 55-mer A-domain peptide of PAM_(NS88.2) (Streptococcus pyogenes (GAS isolate NS88.2)); assay: ITC; K2hPg (syringe) titrated into AGL55 (30 µM, cell); 50 mM sodium phosphate/100 mM NaCl, pH 7.4; 37°C; hetero-association model A + B (Sedphat)
[8] = target: AGL55, 55-mer A-domain peptide of PAM_(NS88.2) (Streptococcus pyogenes (GAS isolate NS88.2)); assay: ITC; K2hPg (syringe) titrated into AGL55 (30 µM, cell); 50 mM sodium phosphate/100 mM NaCl, pH 7.4; 4°C; hetero-association model A + B (Sedphat)
[9] = target: PAM_(NS88.2), plasminogen-binding Group A streptococcal M-protein from GAS isolate NS88.2 (Streptococcus pyogenes (GAS isolate NS88.2)); assay: AUC; apo-PAM_(NS88.2), sedimentation equilibrium at two rotor speeds (<0.2 mg/ml) and sedimentation velocity (6 µM); 50 mM sodium phosphate/100 mM NaCl, pH 7.4; 4°C, 15°C and 25°C

Substance | stoichiometry N [1] | Kd [2] [nM] | stoichiometry N [3] | Kd [4] [nM] | dH [4] [kJ/mol] | Kd [5] [nM] | dH [5] [kJ/mol] | stoichiometry N [6] | stoichiometry N [7] | stoichiometry N [8] | stoichiometry N [9]
K2hPg, kringle-2 domain of human plasminogen (from UniProt P00747 183-262) (domain or fragment) | 1 m:m | 2.7 | 1 m:m | 0.7 | -57.3 | 181 | -155 | 1 m:m | 1 m:m | 1 m:m | –
PAM_(NS88.2), plasminogen-binding Group A streptococcal M-protein from GAS isolate NS88.2 (natural protein) | – | – | – | – | – | – | – | – | – | – | 2
